In the RNAGym collection of RNA variant scans (doi:10.1073/pnas.2313332121):
This sample holds only a part of the variants without activity.

B1: TPR 5TU (parent)
chain: GGAUCUUCUCGAUCUAACAAAAAAGACAAAUCUGCCACAAAGCUUGAGAGCAUCUUCGGAUGCAGAGGCGGCAGCCUUCGGUGGCGCGAUAGCGCCAACGUUCUCAACUAUGACACGCAAAACGCGUGCUCCGUUGAAUGGAGUUUAUCAUG

Variants of: B1
Experiment: polymerase ribozyme fitness, log enrichment relative to wild type (log ratio); higher = more active; in vitro selection for triplet polymerase activity
In short: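 A heterodimeric triplet polymerase ribozyme had each of its subunits mutagenized by PCR into a library, which was transcribed. One round of in vitro selection, done in triplicate, annealed each library with a biotinylated primer, its partner subunit and triplets, then incubated it frozen at −7 °C before gel excision of extended constructs, streptavidin-bead capture and RT-PCR. Fitness is the logarithm of genotype enrichment relative to wild-type enrichment, based on Illumina sequencing of inputs and outputs and inverse-variance-weighted replicate averages. A base-2 logarithm is used, and genotypes were kept only with ≥10 input reads and ≥1 read per output.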

| Variant | polymerase ribozyme fitness (log ratio) |
| --- | --- |
| G94U A147U | 0.0631 |
| C99G U144A U148A | ≤ -4.2 |
| C57G C95U | -1.18 |
| A21G A41U C85A C116U | -1.58 |
| A26C U144G | -0.859 |
| A28C C51A C76G G83C A110U U127G | ≤ -4.2 |
| A24C G65A G84C A97G G100U C108G G141C | ≤ -4.2 |
| A21C A29G U44G C63U G68U C103U A137G G143U | ≤ -4.2 |
| C93U C103A C105U A120G U134C | -3.94 |
| A21C C27A A40U G46A C57U C87G G126A | ≤ -4.2 |
| A52G A73G | -0.266 |
| G84U G92A | ≤ -4.2 |
| G84C C125G | -1.94 |
| C14A U53A C96A A98C A120U G141A | -3.99 |
| U61A A91C G100C A142U | ≤ -4.2 |
| A40U G59C | 0.561 |
| U15A C51U G86U | -1.69 |
| G58A G92A C123G | -4.01 |
| G94U U104C G117U U134A | -2.96 |
| A17U C35A C69G U78G G84A A91G C103A | ≤ -4.2 |
| C5G A39C C87A G126A G136C | ≤ -4.2 |

| Variant | polymerase ribozyme fitness (log ratio) |
| --- | --- |
| A19C U55A A91G | -2.67 |
| A30G U45A U78C G80C A89C G94U | ≤ -4.2 |
| A41C C79U G94U G100A C125A | -2.23 |
| C54U G71U C85A C96G G133C U145G G152A | ≤ -4.2 |
| C57U C96G U130A | -3.15 |
| G81C C87A A91U C93U C114G A138C G141C | ≤ -4.2 |
| G86U G92C | -2.75 |
| A113U G124C | -3.17 |
| C32U C38U C93G A122G G126C U145A | ≤ -4.2 |
| A26U G81A | -1.66 |
| A40G G58C C79G C87U G136U | ≤ -4.2 |
| A40C A49U C57A C76A U82C G94U | ≤ -4.2 |
| C85G A122C | -1.98 |
| A16U C18A A40G G74A G80C G83U G86A A97U | ≤ -4.2 |
| C38U C63A C85U | 0.65 |
| A49G G59C G67A G70A U77C U82C A89G C95G | ≤ -4.2 |
| U9C A22C C54U C57U G100U C105G | ≤ -4.2 |
| C63A G92C | -1.03 |
| A41C A52G G58A | -1.39 |
| A12G A41C A47C C72A C85U G133A A150U | ≤ -4.2 |
| U31A G94A | -0.349 |

| Variant | polymerase ribozyme fitness (log ratio) |
| --- | --- |
| A3U U6A A39G C96G G124U G141A | -3.93 |
| U61A A73C | -3.91 |
| U56A C96U U145A G152A | -2 |
| A20U U55G C93G G94C A142G | ≤ -4.2 |
| C85U C99G G126A U135G | ≤ -4.2 |
| U61A C85U | -1.28 |
| U44A C79G C85A U111G G133C | ≤ -4.2 |
| A16U U33A G42A C93U G140A | ≤ -4.2 |
| C38U G83A G100A C129G | ≤ -4.2 |
| A12G A16U A26U G83U C87G U145C | ≤ -4.2 |
| A41G U53A C85A | -2.72 |
| G11U C38A C125U | -2.71 |
| C35U U55A C96U | -0.218 |
| A16G C43A C57G G59U G70U G88U C99U A107G | ≤ -4.2 |
| C10U G50U C95U | -3.16 |
| C51U C75U G88A C93U G94A G136C | ≤ -4.2 |
| U4C A22U A26U A40C A52U G67A U90A C99A A150U | ≤ -4.2 |
| A30U C38G G50C C87G G117A | ≤ -4.2 |
| C96U A97U U134G A138C | ≤ -4.2 |
| A52U C54G | -2.21 |
| U33G A39U C116A U130G | -3.98 |

| Variant | polymerase ribozyme fitness (log ratio) |
| --- | --- |
| A19G U109G U139C U144C U148C | -4.14 |
| A47G G84A G128C | -3.37 |
| A12U A23G C87U | -3.67 |
| A21G A24C U31C C69G U148C | ≤ -4.2 |
| A3G C27U C51A G59A C85U G88A A115U G141A | ≤ -4.2 |
| C75U G88A A119U | ≤ -4.2 |
| C10A A41G C103A A110G | ≤ -4.2 |
| A29G C57A G58U C95U C125G | ≤ -4.2 |
| A23G G124C A147G A150G | ≤ -4.2 |
| C32G A49C A142U | ≤ -4.2 |
| C18U A39G U53C | -3.19 |
| C105A A113U | ≤ -4.2 |
| C18G C54U U56A A73G A91G | -3.27 |
| A22U A47U A49G G133C A142U | ≤ -4.2 |
| A23G U55A C87U | -2.98 |
| A21G C87U G140U | -3.6 |
| U9G U31G G42U U53A G58C | ≤ -4.2 |
| C85A A122G | -2.54 |
| A20G U55A C96A U104G | -2.4 |
| C18U G80U U148C | -3.99 |
